Reference: patent US20120058906A1 (published 2012)

Columns and labels:
[1] = molecular target: T1, rHuman Erythropoietin R/Fc Chimera, CF (R&D Systems Cat#963-ER) (human, UniProt P19235 25-250); experiment: ECL (MSD Multi-Spot) binding assay, antigen spotted on plate; Fab 154 nM; blank spot 447
T1 construct: Bought Fc chimera; also called EPO R/Fc; Epo R; Fc part of the bought chimera not given
T1 sequence: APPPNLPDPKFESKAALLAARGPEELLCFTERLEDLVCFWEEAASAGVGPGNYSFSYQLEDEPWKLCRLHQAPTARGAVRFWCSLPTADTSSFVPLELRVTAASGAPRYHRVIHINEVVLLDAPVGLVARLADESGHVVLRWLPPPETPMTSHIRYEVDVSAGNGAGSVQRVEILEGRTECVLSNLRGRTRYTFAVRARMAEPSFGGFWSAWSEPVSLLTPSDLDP

[2] = molecular target: T2, rHuman EGF R/Fc Chimera, CF (R&D Systems Cat#344-ER) (human, UniProt P00533 25-645); experiment: as above
T2 construct: Bought Fc chimera; also called epidermal growth factor receptor; Fc part of the bought chimera not given

[3] = molecular target: T3, rHuman Notch-1/Fc Chimera, CF (R&D Systems Cat#3647-TK) (human, UniProt P46531 19-526); experiment: as above
T3 construct: Bought Fc chimera; Fc part of the bought chimera not given

[4] = molecular target: T4, rHuman IGF-1 sR (IGF-1 sR), CF (R&D Systems Cat#391-GR) (human, UniProt P08069 31-932); experiment: as above
T4 construct: Bought soluble receptor; also called insulin-like growth factor-1 soluble receptor; IGF-R1

[5] = molecular target: T5, rHuman Erythropoietin R/Fc Chimera, CF (R&D Systems Cat#963-ER) (human, UniProt P19235 25-250); experiment: ECL (MSD multi-spot), antigen spotted on plate; Fab 176.3 nM; blank spot 346
T5 construct: Bought reagent; also called EPO R/Fc; Epo R; Fc part of the bought chimera not given
T5 sequence: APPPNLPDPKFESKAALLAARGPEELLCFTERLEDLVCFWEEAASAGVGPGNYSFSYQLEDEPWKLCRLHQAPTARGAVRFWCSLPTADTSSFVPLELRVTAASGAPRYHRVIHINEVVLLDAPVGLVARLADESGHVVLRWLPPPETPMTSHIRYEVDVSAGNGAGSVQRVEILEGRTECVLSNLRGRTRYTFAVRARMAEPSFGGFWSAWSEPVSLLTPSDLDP

[6] = molecular target: T6, Recombinant Human DLL4 (R&D Systems Cat#1506-D4/CF) (human, UniProt Q9NR61 27-524); experiment: as above
T6 construct: Bought reagent; also called delta-like protein 4

[7] = molecular target: T7, rHuman ErbB2/Fc Chimera, CF (R&D Systems Cat#1129-ER) (human, UniProt P04626 23-652); experiment: as above
T7 construct: Bought reagent; also called HER2/neu; human epidermal growth factor 2 receptor; Fc part of the bought chimera not given

[8] = molecular target: T8, rHuman EGF R/Fc Chimera, CF (R&D Systems Cat#344-ER) (human, UniProt P00533 25-645); experiment: as above
T8 construct: Bought reagent; also called epidermal growth factor receptor; Fc part of the bought chimera not given

[9] = molecular target: T9, rHuman HGF R/c-MET/Fc Chimera, CF (R&D Systems Cat#358-MT/CF) (human, UniProt P08581 25-932); experiment: as above
T9 construct: Bought reagent; also called HGF R/Fc; hepatocyte growth factor receptor; Fc part of the bought chimera not given

[10] = molecular target: T10, rHuman Notch-1/Fc Chimera, CF (R&D Systems Cat#3647-TK) (human, UniProt P46531 19-526); experiment: as above
T10 construct: Bought reagent; Fc part of the bought chimera not given

[11] = molecular target: T11, rHuman CD44/Fc Chimera, CF (R&D Systems Cat#3660-CD) (human, UniProt P16070 21-220); experiment: as above
T11 construct: Bought reagent; Fc part of the bought chimera not given

[12] = molecular target: T12, rHuman IGF-1 sR (IGF-1 sR), CF (R&D Systems Cat#391-GR) (human, UniProt P08069 31-932); experiment: as above
T12 construct: Bought soluble receptor; also called insulin-like growth factor-1 soluble receptor; IGF-R1

[13] = molecular target: T13, rHuman P-Cadherin/Fc Chimera, CF (R&D Systems Cat#861-PC) (human, UniProt P22223 108-654); experiment: as above
T13 construct: Bought reagent; also called CDH3; Fc part of the bought chimera not given

[14] = molecular target: T14, rHuman IGF-1 sR (insulin-like growth factor-1 soluble receptor), CF (R&D Systems Cat#391-GR) (human, UniProt P08069 31-932); experiment: ECL (MSD multi-spot), antigen on plate, Fab 50 nM
T14 construct: Bought soluble receptor; also called IGF-R1

[15] = molecular target: T15, rHuman Erythropoietin R/Fc Chimera, CF (R&D Systems Cat#963-ER) (human, UniProt P19235 25-250); experiment: ECL (MSD multi-spot), antigen on plate, Fab 50 nM
T15 construct: Bought Fc chimera; also called EPO R/Fc; Epo R; not shown: Fc of the bought chimera
T15 sequence: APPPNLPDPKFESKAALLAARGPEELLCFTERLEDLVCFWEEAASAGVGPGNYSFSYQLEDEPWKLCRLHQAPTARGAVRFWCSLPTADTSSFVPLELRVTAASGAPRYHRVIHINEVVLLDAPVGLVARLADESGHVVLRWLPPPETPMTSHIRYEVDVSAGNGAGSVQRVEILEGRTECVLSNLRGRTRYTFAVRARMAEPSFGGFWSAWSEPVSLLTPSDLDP

[16] = molecular target: T16, rHuman ErbB2/Fc Chimera, CF (R&D Systems Cat#1129-ER) (human, UniProt P04626 23-652); experiment: ECL (MSD multi-spot), antigen on plate, Fab 50 nM
T16 construct: Bought Fc chimera; also called HER2/neu; not shown: Fc of the bought chimera

[17] = molecular target: T17, rHuman Notch-1/Fc Chimera, CF (R&D Systems Cat#3647-TK) (human, UniProt P46531 19-526); experiment: ECL (MSD multi-spot), antigen on plate, Fab 50 nM
T17 construct: Bought Fc chimera; not shown: Fc of the bought chimera

[18] = molecular target: T18, rHuman CD44/Fc Chimera, CF (R&D Systems Cat#3660-CD) (human, UniProt P16070 21-220); experiment: ECL (MSD multi-spot), antigen on plate, Fab 50 nM
T18 construct: Bought Fc chimera; not shown: Fc of the bought chimera
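Also: blank spot per well as comparator with Hit at signal to blank ratio of 4 or more.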

B1: Fab VH5-51_IGHD5-18*01>3_IGHJ4*01 & V3-4_IGLJ1*01 (Fab, V domains shown)
VH: EVQLVQSGAEVKKPGESLKISCKGSGYSFTSYWIGWVRQMPGKGLEWMGIIYPGDSDTRYSPSFQGQVTISADKSISTAYLQWSSLKASDTAMYYCARRGYSYGYDYFDYWGQGTLVTVSS
VL: QTVVTQEPSFSVSPGGTVTLTCGLSSGSVSTSYYPSWYQQTPGQAPRTLIYSTNTRSSGVPDRFSGSILGNKAALTITGAQADDESDYYCVLYMGSGISYVFGTGTKVTVL
notes: Tested as a Fab made in E. coli; also called IGHV5-51*03
[1]
  ECL signal: 1200
[2]
  ECL signal: 1400
[3]
  ECL signal: 929
[4]
  ECL signal: 1400

B2: Fab VH1-46_IGHD3-10*01_IGHJ4*01 & B3_IGKJ1*01 (Fab, V domains shown)
VH: QVQLVQSGAEVKKPGASVKVSCKASGYTFTSYYMHWVRQAPGQGLEWMGIINPSGGSTSYAQKFQGRVTMTRDTSTSTVYMELSSLRSEDTAVYYCAREYYYGSGSYYNDYFDYWGQGTLVTVSS
VL: not shown
notes: also called IGHV1-46*01
[5]
  ECL signal: 3520
[6]
  ECL signal: 460
[7]
  ECL signal: 448
[8]
  ECL signal: 428
[9]
  ECL signal: 418
[10]
  ECL signal: 664
[11]
  ECL signal: 376
[12]
  ECL signal: 393
[13]
  ECL signal: 532

B3: Fab VH1-46_IGHD6-6*01_IGHJ1*01_S102A_S103P_S104F & L6_IGKJ1*01_S31K (Fab, V domains shown)
VH: QVQLVQSGAEVKKPGASVKVSCKASGYTFTSYYMHWVRQAPGQGLEWMGIINPSGGSTSYAQKFQGRVTMTRDTSTSTVYMELSSLRSEDTAVYYCAREEYAPFSAEYFQHWGQGTLVTVSS
VL: EIVLTQSPATLSLSPGERATLSCRASQSVSKYLAWYQQKPGQAPRLLIYDASNRATGIPARFSGSGSGTDFTLTISSLEPEDFAVYYCQQRSNWPPWTFGQGTKVEIKR
notes: Fab
[14]
  ECL signal: 257 ECL signal
[15]
  ECL signal: 574 ECL signal
[16]
  ECL signal: 397 ECL signal
[17]
  ECL signal: 355 ECL signal
[18]
  ECL signal: 262 ECL signal
